The results in this text go back to publication PMC10786891, “Massively parallel profiling of RNA-targeting CRISPR-Cas13d”.

Sequences and labels used below:
B1: target 1 insG 3' of 14,insU 3' of 13 (mixed)
RNA 1: CACCCGUGCAAAAAUGCAGGGGUCUAAAACUGAGCGGAUAACCUCUCUAUGG
RNA 2: GGGAAUGGAUCCACAUCUACGAAUUCGUACCAUAGAGAGGUGUUAUCCGCUCACCGAGAUCGGAAGAGCACACGU
B2: target 1 U10G,G15A (mixed)
RNA 1: CACCCGUGCAAAAAUGCAGGGGUCUAAAACUGAGCGGAUAACCUCUCUAUGG
RNA 2: GGGAAUGGAUCCACAUCUACGAAUUCGUACCAUAGAAAGGUGAUCCGCUCACCGAGAUCGGAAGAGCACACGU
B3: target 1 insA 3' of 22,insG 3' of 11 (mixed)
RNA 1: CACCCGUGCAAAAAUGCAGGGGUCUAAAACUGAGCGGAUAACCUCUCUAUGG
RNA 2: GGGAAUGGAUCCACAUCUACGAAUUCGUACACAUAGAGAGGUGUAUCCGCUCACCGAGAUCGGAAGAGCACACGU
B4: target 1 G5U,C7A (mixed)
RNA 1: CACCCGUGCAAAAAUGCAGGGGUCUAAAACUGAGCGGAUAACCUCUCUAUGG
RNA 2: GGGAAUGGAUCCACAUCUACGAAUUCGUACCAUAGAGAGGUUAUACUCUCACCGAGAUCGGAAGAGCACACGU
B5: target 1 insU 3' of 13,insA 3' of 2 (mixed)
RNA 1: CACCCGUGCAAAAAUGCAGGGGUCUAAAACUGAGCGGAUAACCUCUCUAUGG
RNA 2: GGGAAUGGAUCCACAUCUACGAAUUCGUACCAUAGAGAGUGUUAUCCGCUCAACCGAGAUCGGAAGAGCACACGU
B6: target 1 insU 3' of 15,insU 3' of 15 (mixed)
RNA 1: CACCCGUGCAAAAAUGCAGGGGUCUAAAACUGAGCGGAUAACCUCUCUAUGG
RNA 2: GGGAAUGGAUCCACAUCUACGAAUUCGUACCAUAGAGUUAGGUUAUCCGCUCACCGAGAUCGGAAGAGCACACGU
B7: target 1 A16C,U19C (mixed)
RNA 1: CACCCGUGCAAAAAUGCAGGGGUCUAAAACUGAGCGGAUAACCUCUCUAUGG
RNA 2: GGGAAUGGAUCCACAUCUACGAAUUCGUACCACAGCGAGGUUAUCCGCUCACCGAGAUCGGAAGAGCACACGU
B8: target 1 insA 3' of 22,insA 3' of 4 (mixed)
RNA 1: CACCCGUGCAAAAAUGCAGGGGUCUAAAACUGAGCGGAUAACCUCUCUAUGG
RNA 2: GGGAAUGGAUCCACAUCUACGAAUUCGUACACAUAGAGAGGUUAUCCGCAUCACCGAGAUCGGAAGAGCACACGU
B9: target 1 C6A,G13U (mixed)
RNA 1: CACCCGUGCAAAAAUGCAGGGGUCUAAAACUGAGCGGAUAACCUCUCUAUGG
RNA 2: GGGAAUGGAUCCACAUCUACGAAUUCGUACCAUAGAGAUGUUAUCAGCUCACCGAGAUCGGAAGAGCACACGU
B10: target 1 insU 3' of 9,insU 3' of 1 (mixed)
RNA 1: CACCCGUGCAAAAAUGCAGGGGUCUAAAACUGAGCGGAUAACCUCUCUAUGG
RNA 2: GGGAAUGGAUCCACAUCUACGAAUUCGUACCAUAGAGAGGUUAUUCCGCUCAUCCGAGAUCGGAAGAGCACACGU
B11: target 1 insA 3' of 17,insU 3' of 16 (mixed)
RNA 1: CACCCGUGCAAAAAUGCAGGGGUCUAAAACUGAGCGGAUAACCUCUCUAUGG
RNA 2: GGGAAUGGAUCCACAUCUACGAAUUCGUACCAUAGAAUGAGGUUAUCCGCUCACCGAGAUCGGAAGAGCACACGU
B12: target 1 insA 3' of 21,insA 3' of 13 (mixed)
RNA 1: CACCCGUGCAAAAAUGCAGGGGUCUAAAACUGAGCGGAUAACCUCUCUAUGG
RNA 2: GGGAAUGGAUCCACAUCUACGAAUUCGUACCAAUAGAGAGAGUUAUCCGCUCACCGAGAUCGGAAGAGCACACGU
B13: target 1 U8G,C21A (mixed)
RNA 1: CACCCGUGCAAAAAUGCAGGGGUCUAAAACUGAGCGGAUAACCUCUCUAUGG
RNA 2: GGGAAUGGAUCCACAUCUACGAAUUCGUACAAUAGAGAGGUUAGCCGCUCACCGAGAUCGGAAGAGCACACGU
B14: target 1 U8C,G12C (mixed)
RNA 1: CACCCGUGCAAAAAUGCAGGGGUCUAAAACUGAGCGGAUAACCUCUCUAUGG
RNA 2: GGGAAUGGAUCCACAUCUACGAAUUCGUACCAUAGAGAGCUUACCCGCUCACCGAGAUCGGAAGAGCACACGU
B15: target 1 insU 3' of 21,insC 3' of 11 (mixed)
RNA 1: CACCCGUGCAAAAAUGCAGGGGUCUAAAACUGAGCGGAUAACCUCUCUAUGG
RNA 2: GGGAAUGGAUCCACAUCUACGAAUUCGUACCUAUAGAGAGGUCUAUCCGCUCACCGAGAUCGGAAGAGCACACGU
B16: target 1 insA 3' of 10,insU 3' of 9 (mixed)
RNA 1: CACCCGUGCAAAAAUGCAGGGGUCUAAAACUGAGCGGAUAACCUCUCUAUGG
RNA 2: GGGAAUGGAUCCACAUCUACGAAUUCGUACCAUAGAGAGGUUAAUUCCGCUCACCGAGAUCGGAAGAGCACACGU
B17: target 1 insG 3' of 8,insU 3' of 7 (mixed)
RNA 1: CACCCGUGCAAAAAUGCAGGGGUCUAAAACUGAGCGGAUAACCUCUCUAUGG
RNA 2: GGGAAUGGAUCCACAUCUACGAAUUCGUACCAUAGAGAGGUUAUGCUCGCUCACCGAGAUCGGAAGAGCACACGU
B18: target 1 insC 3' of 10,insG 3' of 4 (mixed)
RNA 1: CACCCGUGCAAAAAUGCAGGGGUCUAAAACUGAGCGGAUAACCUCUCUAUGG
RNA 2: GGGAAUGGAUCCACAUCUACGAAUUCGUACCAUAGAGAGGUUCAUCCGCGUCACCGAGAUCGGAAGAGCACACGU
B19: target 1 insC 3' of 18,insC 3' of 9 (mixed)
RNA 1: CACCCGUGCAAAAAUGCAGGGGUCUAAAACUGAGCGGAUAACCUCUCUAUGG
RNA 2: GGGAAUGGAUCCACAUCUACGAAUUCGUACCAUACGAGAGGUUACUCCGCUCACCGAGAUCGGAAGAGCACACGU
B20: target 1 insA 3' of 11,insA 3' of 5 (mixed)
RNA 1: CACCCGUGCAAAAAUGCAGGGGUCUAAAACUGAGCGGAUAACCUCUCUAUGG
RNA 2: GGGAAUGGAUCCACAUCUACGAAUUCGUACCAUAGAGAGGUAUAUCCGACUCACCGAGAUCGGAAGAGCACACGU
B21: target 1 insA 3' of 15,insA 3' of 7 (mixed)
RNA 1: CACCCGUGCAAAAAUGCAGGGGUCUAAAACUGAGCGGAUAACCUCUCUAUGG
RNA 2: GGGAAUGGAUCCACAUCUACGAAUUCGUACCAUAGAGAAGGUUAUCACGCUCACCGAGAUCGGAAGAGCACACGU
B22: target 1 insC 3' of 20,insG 3' of 7 (mixed)
RNA 1: CACCCGUGCAAAAAUGCAGGGGUCUAAAACUGAGCGGAUAACCUCUCUAUGG
RNA 2: GGGAAUGGAUCCACAUCUACGAAUUCGUACCACUAGAGAGGUUAUCGCGCUCACCGAGAUCGGAAGAGCACACGU
B23: target 1 insA 3' of 22,insG 3' of 10 (mixed)
RNA 1: CACCCGUGCAAAAAUGCAGGGGUCUAAAACUGAGCGGAUAACCUCUCUAUGG
RNA 2: GGGAAUGGAUCCACAUCUACGAAUUCGUACACAUAGAGAGGUUGAUCCGCUCACCGAGAUCGGAAGAGCACACGU
B24: target 1 U11C,C22U (mixed)
RNA 1: CACCCGUGCAAAAAUGCAGGGGUCUAAAACUGAGCGGAUAACCUCUCUAUGG
RNA 2: GGGAAUGGAUCCACAUCUACGAAUUCGUAUCAUAGAGAGGCUAUCCGCUCACCGAGAUCGGAAGAGCACACGU
B25: target 1 insC 3' of 15,insA 3' of 8 (mixed)
RNA 1: CACCCGUGCAAAAAUGCAGGGGUCUAAAACUGAGCGGAUAACCUCUCUAUGG
RNA 2: GGGAAUGGAUCCACAUCUACGAAUUCGUACCAUAGAGCAGGUUAUACCGCUCACCGAGAUCGGAAGAGCACACGU
B26: target 1 insU 3' of 13,insC 3' of 1 (mixed)
RNA 1: CACCCGUGCAAAAAUGCAGGGGUCUAAAACUGAGCGGAUAACCUCUCUAUGG
RNA 2: GGGAAUGGAUCCACAUCUACGAAUUCGUACCAUAGAGAGUGUUAUCCGCUCACCCGAGAUCGGAAGAGCACACGU
B27: target 1 C2A,U11A (mixed)
RNA 1: CACCCGUGCAAAAAUGCAGGGGUCUAAAACUGAGCGGAUAACCUCUCUAUGG
RNA 2: GGGAAUGGAUCCACAUCUACGAAUUCGUACCAUAGAGAGGAUAUCCGCUAACCGAGAUCGGAAGAGCACACGU

The data set addresses T1, EsCas13d, nuclease-dead (Eubacterium siraeum, UniProt B0MS50, R295A;H300A;R849A;H854A).
T1 sequence: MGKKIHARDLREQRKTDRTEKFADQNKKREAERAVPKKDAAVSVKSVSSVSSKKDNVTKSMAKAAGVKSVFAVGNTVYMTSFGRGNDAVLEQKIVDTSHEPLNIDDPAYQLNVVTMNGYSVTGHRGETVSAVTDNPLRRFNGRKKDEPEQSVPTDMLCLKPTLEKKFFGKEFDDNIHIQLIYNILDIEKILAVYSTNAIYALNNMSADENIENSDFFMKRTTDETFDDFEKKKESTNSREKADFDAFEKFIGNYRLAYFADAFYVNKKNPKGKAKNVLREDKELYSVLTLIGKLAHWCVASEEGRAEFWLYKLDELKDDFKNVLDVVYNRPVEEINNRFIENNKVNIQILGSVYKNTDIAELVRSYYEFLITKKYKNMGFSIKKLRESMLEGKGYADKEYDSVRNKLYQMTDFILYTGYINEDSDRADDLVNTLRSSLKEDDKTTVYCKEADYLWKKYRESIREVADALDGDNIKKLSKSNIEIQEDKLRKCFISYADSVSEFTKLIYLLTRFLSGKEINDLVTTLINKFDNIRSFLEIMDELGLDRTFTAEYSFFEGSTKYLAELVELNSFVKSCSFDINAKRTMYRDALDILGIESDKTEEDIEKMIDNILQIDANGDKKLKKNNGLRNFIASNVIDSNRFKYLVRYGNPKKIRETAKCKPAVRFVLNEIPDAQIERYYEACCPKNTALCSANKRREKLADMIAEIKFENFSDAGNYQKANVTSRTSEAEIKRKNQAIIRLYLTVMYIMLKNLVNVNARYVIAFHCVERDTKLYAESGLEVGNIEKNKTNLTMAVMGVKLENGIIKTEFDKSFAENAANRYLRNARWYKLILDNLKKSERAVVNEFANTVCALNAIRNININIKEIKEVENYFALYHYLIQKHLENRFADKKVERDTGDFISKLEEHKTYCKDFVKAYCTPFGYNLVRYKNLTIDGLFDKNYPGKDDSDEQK
In words: crRNA (strand 1, pre-loaded); Mg2+; 40 mM Tris-HCl pH 7.5, 150 mM NaCl, 6 mM MgCl2, 1 mM DTT, 0.1% Tween-20, 0.2 mg/ml BSA; 25 C; 10 min per concentration, then washed. To be noted: tags: His6-TwinStrep-SUMO cleaved; N-terminal SNAP kept (SNAP-Surface 488); label: 3' end held by stalled T7 RNA polymerase.
In the case of B1, binding was put at a Kd of 22.8 ± 2.7 nM. The same measure for B2: 53 ± 15 nM; for B3: 42 ± 8 nM. The same measure for B4: 56 ± 9 nM; for B5: 16.2 ± 1.8 nM. B6: binding was put at a Kd of 17.6 ± 1.2 nM. For the molecule B7, binding was put at a Kd of 94 ± 21 nM.

Turning to B8, the dissociation constant (Kd) is 7.8 ± 1.1 nM. Next, B9: 34 ± 4 nM. Turning to B10, the Kd was 32 ± 7 nM. The same measure for B11: 38 ± 8 nM. B12 had a Kd of 11.7 ± 0.7 nM. Molecule B13 had a dissociation constant Kd of 54 ± 11 nM.

Regarding B14, the Kd is 18.1 ± 0.6 nM. B15 showed a dissociation constant Kd of 81 ± 21 nM. The same measure for B16: 13.9 ± 0.5 nM. Take B17: binding was characterised by a dissociation constant (Kd) of 14.1 ± 0.5 nM. The molecule B18 showed a Kd of 8.6 ± 0.4 nM.

On to B19, for which the Kd turned out to be 58 ± 8 nM. Consider B20, for which binding was characterised by a dissociation constant (Kd) of 8.7 ± 0.4 nM.

B21: binding was put at a Kd of 4.65 ± 0.17 nM. In turn, B22 displayed a Kd of 8.8 ± 0.4 nM. Molecule B23 showed an equilibrium dissociation constant (Kd) of 55 ± 13 nM.

Turning to B24, the Kd turned out to be 21.2 ± 1.7 nM. Turning to B25, the Kd is 20.1 ± 2.1 nM.

In turn, B26 yielded a Kd of 21 ± 4 nM. Next, B27: 21.6 ± 1.4 nM.
